The text below walks through data of the Human Domainome abundance scans (Beltran et al. 2025).

± gives the uncertainty stated by the source.

First the molecules themselves.
B1: Apoptosis-associated speck-like protein containing a CARD, residues 114 to 194; numbered along this chain, Q9ULZ3 (parent)
chain: FIDQHRAALIARVTNVEWLLDALYGKVLTDEQYQAVRAEPTNPSKMRKLFSFTPAWNWTCKDLLLQALRESQSYLVEDLER

In this series the parent is B1. Kind of series: abundance fitness (aPCA) (normalised: wild type 0, dead -1); higher = more abundant; growth selection in yeast, the domain comes from the species named. Particulars: Homo sapiens.
On to FIDQHRAALIARVTNVEWLLDALYGKVLTDEQYQAVRAEYTNPSKMRKLFSFTPAWNWTCKDLLLQALRESQSYLVEDLER [P40Y], for which the abundance fitness is -0.633 ± 0.19.
With FIDQHRAALIARVTNVEWLLDALYGKVLTDEQYQAVRAEPTNPSKMAKLFSFTPAWNWTCKDLLLQALRESQSYLVEDLER [R47A], the abundance fitness was determined as 0.013 ± 0.055.
The result for FIDQHRAALIARVTNVEWLLDALYGKVLTDEQYQAVRAEPTHPSKMRKLFSFTPAWNWTCKDLLLQALRESQSYLVEDLER [N42H] reads -0.624 ± 0.14.
For FIDQHRAALIARVTNVEWLLDALYGKWLTDEQYQAVRAEPTNPSKMRKLFSFTPAWNWTCKDLLLQALRESQSYLVEDLER [V27W] the value was -0.734 ± 0.13.
Consider FIDQHRAALIARVTNVEWLLDALYGKVLTDEQYQAVRAEPTNPSKMRKLFSFTPAWNWTCKDLLLQALRESQSYLIEDLER [V76I], for which the abundance fitness was -0.056 ± 0.092.
For the variant FIDQHRAALIARVTNVEWLYDALYGKVLTDEQYQAVRAEPTNPSKMRKLFSFTPAWNWTCKDLLLQALRESQSYLVEDLER [L20Y], the abundance fitness is -0.626 ± 0.39.
Take FIDQHRAALIARVTNVEWLQDALYGKVLTDEQYQAVRAEPTNPSKMRKLFSFTPAWNWTCKDLLLQALRESQSYLVEDLER [L20Q]: the abundance fitness is -0.854 ± 0.2.
The result for FIDQHRAALIAHVTNVEWLLDALYGKVLTDEQYQAVRAEPTNPSKMRKLFSFTPAWNWTCKDLLLQALRESQSYLVEDLER [R12H] reads -0.219 ± 0.12.
Turning to FIDQHRAALIAYVTNVEWLLDALYGKVLTDEQYQAVRAEPTNPSKMRKLFSFTPAWNWTCKDLLLQALRESQSYLVEDLER [R12Y], the abundance fitness is -0.484 ± 0.13.
Turning to FIDQHRAALIAKVTNVEWLLDALYGKVLTDEQYQAVRAEPTNPSKMRKLFSFTPAWNWTCKDLLLQALRESQSYLVEDLER [R12K], the abundance fitness is -0.228 ± 0.095.
For FIDQHRAALIARVTNVEWLLDALYGKVLTDEQYQTVRAEPTNPSKMRKLFSFTPAWNWTCKDLLLQALRESQSYLVEDLER [A35T] the value was -0.348 ± 0.074; for FIDQHRAALIARVTNVEWLLDALYGKVLTDEQYQKVRAEPTNPSKMRKLFSFTPAWNWTCKDLLLQALRESQSYLVEDLER [A35K], -0.224 ± 0.14.
The result for FIDQHRAALIARVTNVEWLLDALYGKVLTDEQYQAVRAEPTNPSPMRKLFSFTPAWNWTCKDLLLQALRESQSYLVEDLER [K45P] reads -0.803 ± 0.15.
For FIDQHRAALIARVTNVEWLLDALYGKVLTDEQWQAVRAEPTNPSKMRKLFSFTPAWNWTCKDLLLQALRESQSYLVEDLER [Y33W] the value was -0.524 ± 0.11; for FIDQHRAALIARVTNVEWLLDALYGKVLTDEQCQAVRAEPTNPSKMRKLFSFTPAWNWTCKDLLLQALRESQSYLVEDLER [Y33C], 0.121 ± 0.06.
Consider FIDQHRAALIARVTNVEWLLDALYGKVLTDEQYQAVRAEPTNPSKMRKLFSFTPAWNDTCKDLLLQALRESQSYLVEDLER [W58D], for which the abundance fitness is 0.453 ± 0.12.
For FIDQHRAALIARVTNVEWLLDALYGKVATDEQYQAVRAEPTNPSKMRKLFSFTPAWNWTCKDLLLQALRESQSYLVEDLER [L28A] the value was -0.732 ± 0.088.
The result for FIDQHRAALIARVTNVEWLLDALYGKVLTDEQYQAVRHEPTNPSKMRKLFSFTPAWNWTCKDLLLQALRESQSYLVEDLER [A38H] reads -0.226 ± 0.14.
For FIDQHRAALIARVTNVEWLLDALYGKVLTDEQYQAVRAEPTNPSKMRKLFSFTPAWNWTCKDLLLQAPRESQSYLVEDLER [L68P] the value was -0.569 ± 0.14; for FIDQHRAALIARVTNVEWLLDALYGKVLTDEQYQAVRAEPTNPSKMRKLFSFTPAWNWTCKDLLLQALRESQSDLVEDLER [Y74D], 0.21 ± 0.09; for FIDQHRAALIARVTNVEWLLDALYGKVLTDEQYQAVRAEPTNPSKMRKLFSFTPAWNWTCKDLLLQALRESQSELVEDLER [Y74E], 0.249 ± 0.11.
In the case of FIDQHRAALIARVTNVEWLLDALYGKVLTDEQYQAVRAEPTNPSKMRKLFSFTPAWNWTCKDLTLQALRESQSYLVEDLER [L64T], the abundance fitness is -0.513 ± 0.09.
For the variant FIDQHRAALIARVTNVYWLLDALYGKVLTDEQYQAVRAEPTNPSKMRKLFSFTPAWNWTCKDLLLQALRESQSYLVEDLER [E17Y], the abundance fitness is -0.61 ± 0.17.
With FIDQHRAALIARVTNVLWLLDALYGKVLTDEQYQAVRAEPTNPSKMRKLFSFTPAWNWTCKDLLLQALRESQSYLVEDLER [E17L], the abundance fitness is -0.859 ± 0.12.
For FIDQHRAALIARVTNVEWLLDALYGKVLTDEQYQAVRAEPTNPSKMRKFFSFTPAWNWTCKDLLLQALRESQSYLVEDLER [L49F] the value was -0.811 ± 0.37; for FIDQHRAALIARVTNVEWLLDALYGKVLTDEQYQAVRAEPTNPSKMRKIFSFTPAWNWTCKDLLLQALRESQSYLVEDLER [L49I], -0.444 ± 0.17.
For FIDQHRAALIARVTCVEWLLDALYGKVLTDEQYQAVRAEPTNPSKMRKLFSFTPAWNWTCKDLLLQALRESQSYLVEDLER [N15C] the value was -0.718 ± 0.14.
For FIDQHRAALIARVTNVEWLLDALYGKVLTDEQYQAVRAEPTNPSKMRKLFSFTPAWNWTCKDLLLQALRESMSYLVEDLER [Q72M] the value was -0.545 ± 0.12; for FIDQHRAALIARVTNVEWLLDALYGKVLTDEQYQAVRAEPANPSKMRKLFSFTPAWNWTCKDLLLQALRESQSYLVEDLER [T41A], -0.52 ± 0.081.
Regarding FIDQHRAALIARVTNVEGLLDALYGKVLTDEQYQAVRAEPTNPSKMRKLFSFTPAWNWTCKDLLLQALRESQSYLVEDLER [W18G], the abundance fitness came out at 0.169 ± 0.047.
Turning to FIDQHRAALIARVTNVERLLDALYGKVLTDEQYQAVRAEPTNPSKMRKLFSFTPAWNWTCKDLLLQALRESQSYLVEDLER [W18R], the abundance fitness came out at 0.076 ± 0.04.
In the case of FIDQHRAALIARVTNVEDLLDALYGKVLTDEQYQAVRAEPTNPSKMRKLFSFTPAWNWTCKDLLLQALRESQSYLVEDLER [W18D], the abundance fitness was 0.18 ± 0.097.
FIDQHRAALIARVTNVEKLLDALYGKVLTDEQYQAVRAEPTNPSKMRKLFSFTPAWNWTCKDLLLQALRESQSYLVEDLER [W18K]: the abundance fitness was found to be 0.186 ± 0.089.
For FIDQHRAALIARVTNVEWLLDALYGKVLTDEQYQAVRAEPTNPSKMRKLFSFTIAWNWTCKDLLLQALRESQSYLVEDLER [P54I] the value was -0.189 ± 0.13.
